In patent US6849258:

Tests used:
[1] = target: human CD2 (CD2 antigen on human PBMC, on COS cells transfected with the entire CD2 molecule, and on CD2-expressing Jurkat cells) (human) (UniProt P06729); experiment: two-colour flow cytometry of human PBMC, biotinylated LO-CD2a (FL1) and Leu-5b-PE (FL2); upper left quadrant
[2] = target: human CD2 (CD2 antigen on human PBMC, on COS cells transfected with the entire CD2 molecule, and on CD2-expressing Jurkat cells) (human) (UniProt P06729); experiment: two-colour flow cytometry of human PBMC, biotinylated LO-CD2a (FL1) and Leu-5b-PE (FL2); upper right quadrant

UniProt P06729, sequence (P06729 25-351): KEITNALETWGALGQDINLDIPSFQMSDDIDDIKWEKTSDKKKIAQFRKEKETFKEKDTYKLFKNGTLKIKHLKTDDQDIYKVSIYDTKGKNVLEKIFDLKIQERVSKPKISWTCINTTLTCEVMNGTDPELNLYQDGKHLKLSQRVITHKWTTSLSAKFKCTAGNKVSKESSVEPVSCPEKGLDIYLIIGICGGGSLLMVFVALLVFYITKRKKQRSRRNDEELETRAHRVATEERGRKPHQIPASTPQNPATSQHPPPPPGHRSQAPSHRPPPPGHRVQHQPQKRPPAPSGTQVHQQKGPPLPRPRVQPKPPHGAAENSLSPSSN

- % gated (quadrant 1UL) [1]: 23.2%
- Y mean (quadrant 1UL) [1]: 285
- Y mean (quadrant 2UR) [2]: 631
Substance: Leu-5b, mouse anti-human CD2 monoclonal antibody (Becton Dickinson)
